According to patent publication US20250019450A1 (DIAGONAL THERAPEUTICS, published 2025):
Where a chain is given by its changes, count along the chain named.

T1: cyno IL-12RB2 overexpressed on 293T cells (Example 2) (cyno, UniProt A0A2K5VNI7 24-860)
T1 construct: whole, on cells
T1 sequence: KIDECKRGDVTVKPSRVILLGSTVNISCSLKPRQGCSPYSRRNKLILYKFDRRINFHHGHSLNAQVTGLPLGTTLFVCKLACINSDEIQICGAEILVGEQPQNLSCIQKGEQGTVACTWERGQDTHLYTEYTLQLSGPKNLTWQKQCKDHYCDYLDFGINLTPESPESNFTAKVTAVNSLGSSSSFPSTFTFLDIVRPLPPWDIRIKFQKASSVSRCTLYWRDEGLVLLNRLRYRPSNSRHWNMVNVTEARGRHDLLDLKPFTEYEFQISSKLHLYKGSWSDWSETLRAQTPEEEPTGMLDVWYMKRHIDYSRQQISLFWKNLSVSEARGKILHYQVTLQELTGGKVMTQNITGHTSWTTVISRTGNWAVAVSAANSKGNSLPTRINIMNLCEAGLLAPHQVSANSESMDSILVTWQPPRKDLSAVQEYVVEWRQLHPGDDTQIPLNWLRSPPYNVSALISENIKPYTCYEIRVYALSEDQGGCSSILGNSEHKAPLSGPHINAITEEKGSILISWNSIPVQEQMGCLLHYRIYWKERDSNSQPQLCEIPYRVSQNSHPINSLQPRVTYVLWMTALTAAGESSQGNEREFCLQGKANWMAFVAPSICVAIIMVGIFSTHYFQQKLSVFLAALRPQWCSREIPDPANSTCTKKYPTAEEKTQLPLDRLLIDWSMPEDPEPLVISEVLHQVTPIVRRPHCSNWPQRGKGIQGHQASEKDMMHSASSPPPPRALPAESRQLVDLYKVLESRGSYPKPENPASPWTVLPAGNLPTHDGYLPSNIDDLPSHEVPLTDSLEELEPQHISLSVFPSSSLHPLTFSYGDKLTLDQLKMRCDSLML

T2: human IL-12RB2 overexpressed on 293T cells (Example 2) (human, UniProt Q99665 24-862)
T2 construct: whole, on cells
T2 sequence (looked up): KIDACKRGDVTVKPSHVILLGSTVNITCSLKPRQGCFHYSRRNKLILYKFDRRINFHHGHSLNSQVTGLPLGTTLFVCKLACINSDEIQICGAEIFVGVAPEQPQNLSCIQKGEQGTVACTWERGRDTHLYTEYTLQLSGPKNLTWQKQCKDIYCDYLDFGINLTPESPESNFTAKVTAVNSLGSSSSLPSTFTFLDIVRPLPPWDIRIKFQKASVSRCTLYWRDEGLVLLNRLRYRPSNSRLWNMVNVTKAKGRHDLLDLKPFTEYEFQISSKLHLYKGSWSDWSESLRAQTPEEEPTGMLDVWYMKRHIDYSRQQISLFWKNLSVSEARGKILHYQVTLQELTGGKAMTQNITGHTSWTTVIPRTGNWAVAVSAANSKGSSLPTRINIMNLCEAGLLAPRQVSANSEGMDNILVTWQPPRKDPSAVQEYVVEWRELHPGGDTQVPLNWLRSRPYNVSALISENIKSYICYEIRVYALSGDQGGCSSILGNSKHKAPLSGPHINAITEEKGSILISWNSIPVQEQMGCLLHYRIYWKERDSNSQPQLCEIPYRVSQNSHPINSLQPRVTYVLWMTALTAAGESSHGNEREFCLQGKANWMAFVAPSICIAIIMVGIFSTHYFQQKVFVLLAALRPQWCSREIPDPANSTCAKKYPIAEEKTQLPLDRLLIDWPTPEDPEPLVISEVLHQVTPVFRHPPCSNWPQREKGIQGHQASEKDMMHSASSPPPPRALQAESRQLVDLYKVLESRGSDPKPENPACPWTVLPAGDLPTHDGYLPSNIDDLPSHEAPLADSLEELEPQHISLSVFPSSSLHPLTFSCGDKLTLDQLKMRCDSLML

B1: 85802_10K12 (antibody, V domains shown)
VH: QVTLRESGPALVKPTQTLTLTCTFSGFSLSTSGMCVSWIRQPPGKALEWLALIYWDDDKYYSTSLKTRLTISKDTSKNQVVLTMTNMDPVDTATYYCARMRRGIEAFDIWGQGTMVTVFS
VL: QSVLTQPPSVSGAPGQRVTISCTGSSSNIGAGYDVHWYQQLPGTAPKLLIFGYSNRPSGVPVRFSGSKSGTSASLAITGLLAEDEADFYCQSFDISLTGWVFGGGTKLTVL
notes: also called 85802_10K12A
B2: 85802_02K15 (antibody, V domains shown)
VH: EVQLVQSGTEVKKPGESLKISCKGSGYSFTSYWIGWVRQMPGKGLEWMGNIYPGDSDTRYSPSFQGHVTISADKSISTAYLQWSSLKASDTAMYYCARRGGGYWGQGTLVTVSS
VL: not shown
notes: also called 85802_02K15A
B3: 85802_10M17 (antibody, V domains shown)
VH: EVLLVESGGGLVKPGGSLRLSCAASGFTFSSYSMNWVRQAPGKGLEWVSSISSSSDYIHYADSVRGRFTISRDNAKNSLYLQMNSLRAEDTAVYYCARSELGFDYWGQGTLVTVSS
VL: DIQMTQSPSSVSASVGDRVTITCRASQGISIWLAWYQQKPGKAPKPLIYAASSLQSGVPSRFSGSGSGTDFTLTISSLQPEDFATYYCQQANSFPLTFGGGTKVEIK
notes: also called 85802_10M17A
B4: 85802_08F20 (antibody, V domains shown)
VH: QVQLVQSGAEVKKPGASVKVSCKASGYTFIGYYIHWVRQAPGQGLEWMGWINPHSGGTNYAQKFQGRVTMTRDTSISTAYMELSRLRSDDTAIYYCTKEANNWGYAFDIWGQGTMVTVSS
VL: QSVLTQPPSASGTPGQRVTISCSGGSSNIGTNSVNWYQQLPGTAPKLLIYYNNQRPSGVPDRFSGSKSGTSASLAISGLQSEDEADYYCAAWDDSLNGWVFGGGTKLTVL
notes: also called 85802_08F20A
B5: 85802_06A17 (antibody, V domains shown)
VH: EVQLVQSGAEVKKPGESLKISCKGSGYSFTSYWIGWVRQMPGKGLECMGIIYPGDSDTRYSPSFQGQVTISADKSISTAYLQWSSLKASDTAMYYCARHEGAYWYFDLWGRGTLVTVSS
VL: QSVLTQPPSVSGAPGQRVTISCTGSSSNIGAGYDVHWYQQLPGTAPKVLIYGNSNRPSGVPDRFSGSKSGTSASLAITGLQAEDEADYYCQSLDTSHVVFGGGTKLTVL
notes: also called 85802_06A17A
B6: 85802_06H06 (antibody, V domains shown)
VH: QVHLQESGPGLVKPSETLSLTCTVSGGSISYYYWNWIRQPPGKGLEWIASIYNSGNINYNPSLKSRVTISVDTSKNQFSLKLTSVTAADTAVYYCARGGYSYGYFDNWGQGILVTVSS
VL: SYELTQPPSVSVSPGQTASITCSGRELGNKYAYWYQQKPGQSPVLVIYEDYKRPSGIPERFSGSNSGNTATLTISGTQAMDEADYYCQAWDSSTVIFGGGTKLTVL
notes: also called 85802_06H06A
B7: 85802_06F06 (antibody, V domains shown)
VH: QVQLQESGPGLVKPSETLSLTCTVSGGSISSYYWSWIRQPPGKGLEWFGYIYDSGSTNYNPSLKSRVTISVDTSKNQFSLKLSSVTAADTAVYYCARGSYFWYFDLWGRGTLVTVSS
VL: B6 VL with R25D, E26K, N29A, Y33S, Q36H, E49Q, Y51T, I96V
notes: also called 85802_06F06A

What was measured:
[1] = biological target: T1, cyno IL-12RB2 overexpressed on 293T …; experiment: FACS, hybridoma supernatant, 293T
[2] = biological target: T2, human IL-12RB2 overexpressed on 293T …; experiment: FACS, hybridoma supernatant, 293T
[3] = biological target: T3, IL-12 receptor endogenously expressed on THP-1 cells (UniProt P42701 24-662; Q99665 24-862); experiment: FACS, hybridoma supernatant, THP-1
T3 construct: whole, on cells

| Binder | Fold over parental 293T [1] [fold] | Fold over parental 293T [2] [fold] | Fold over buffer [3] [fold] |
| --- | --- | --- | --- |
| B1 | 13 | 3.3 | 27 |
| B2 | 6 | 3.3 | 53 |
| B3 | 12 | 3.8 | 21 |
| B4 | 8 | 3.4 | 21 |
| B5 | 11 | 2.8 | 28 |
| B6 | 10 | 2.9 | 34 |
| B7 | 14 | 3.3 | 35 |
